From patent US20110014669A1, “Production of 1,4 Butanediol in a Microorganism” (Microbia, Inc., priority 2009, published 2011)

Columns and labels:
Set-up in all cases: key: +: measureable activity detected in the assay; −: no measurable activity detected in the assay
5-hydroxy-L-norvaline = assay: Enzyme assay, aminotransferase (step A4), cell lysates; format: biochemical; settings: BDO biosynthetic pathway step A4
Experimental: (§1) Enzyme expression and crude lysate preparation. The enzymatic activity of each candidate enzyme is evaluated, first in E. coli and subsequently in C. glutamicum. It will be apparent to one of skill in the art that the expression and lysate preparations may need to be modified depending on the host cell and recombinant gene of interest.
(§2) E. coli: E. coli strains transformed with expression clones, for example, pUC18 or MB4124 based clones having a medium strong constitutive promoter regulating the recombinant gene of interest, are grown aerobically in LB medium (Difco) containing the appropriate antibiotic(s). At an OD600 of 0.5, IPTG is added to a final concentration of 0.25 mM. The cultures are grown to a final OD600 of 1.5 at which time the cells are collected and harvested by centrifugation. Cell pellets are resuspended in BugBuster (Novagen) reagent containing benzonase and lysozyme. Alternatively, E. coli strains transformed with expression clones, are grown overnight aerobically at 37° C. in BHI containing the appropriate antibiotic(s). 300 μL of fresh overnight culture is used to inoculate 2.7 mL BHI containing 0.25 mM IPTG and the appropriate antibiotic. The cultures are grown aerobically for 4-5 hours at 37° C. at which time the cells are collected and harvested by centrifugation. Cell pellets are frozen at −80° C. for at least 15 minutes, then thawed and resuspended in BugBuster (Novagen) reagent. Lysis and lysate collection are performed according to the manufacturer's instructions and, for example, may involve use of a sonicator and/or French press. Cleared lysates are stored on ice until enzyme assays are performed.
C. glutamicum: C. glutamicum strains transformed with MB4124 expression clones containing the recombinant gene of interest are grown aerobically in BHI broth supplemented with the proper antibiotic(s). At an OD600 of 0.5, IPTG is added to a final concentration of 0.25 mM. The cultures are grown to a final OD600 of 1.5 at which time the cells are collected and harvested by centrifugation. The pellet is washed once in one volume of water and resuspended in lysis buffer (1.0 ml 1.0 M HEPES buffer, pH 7.5, 0.5 ml 1M KOH, 10 μl 0.5M EDTA, protease inhibitor cocktail, water to 5 ml; the final pH will vary depending on the individual enzyme being tested) and one volume of 0.1 mm acid washed glass beads. The mixture is repeatedly alternately vortexed and held on ice for 15 seconds, eight times. After centrifugation for 5 min at 4,000 rpm, the supernatant lysate is removed and respun for 20 min at 10,000 rpm. Alternatively, C. glutamicum strains transformed with MB4124 expression clones containing the recombinant gene of interest are grown aerobically overnight in BHI broth supplemented with the proper antibiotic(s). Five mL of fresh overnight culture is used to inoculate 200 mL BHI containing 0.25 mM IPTG and the appropriate antibiotic. The cultures are grown aerobically at 30° C. for 5-7 hours at which time the cells are collected and harvested by centrifugation at 4° C. The pellet is resuspended in 15 mL ice cold 39 mM KH2PO4, 61 mM K2HPO4, 0.5 M KCl and lysed using a BioSpec BeadBeater and following the manufacturer's instructions. […]
Protein Assays. Protein concentrations in lysates are determined according to the methods of Bradford et al. (Anal. Biochem. 72:248-254 [1976]) or by the method of Smith et al. (Anal. Biochem. 150(1):76-85 [1985]) and lysates are assayed according to the methods below. […]

[1] = tested on: 5-hydroxy-2-oxopentanoate; assay: Enzyme assay, decarboxylase (step A5), aldehyde dehydrogenase linked reaction; format: biochemical; settings: BDO biosynthetic pathway step A5
Experimental: as §1, §2
C. glutamicum: C. glutamicum strains transformed with MB4124 expression clones containing the recombinant gene of interest are grown aerobically in BHI broth supplemented with the proper antibiotic(s). At an OD600 of 0.5, IPTG is added to a final concentration of 0.25 mM. The cultures are grown to a final OD600 of 1.5 at which time the cells are collected and harvested by centrifugation. The pellet is washed once in one volume of water and resuspended in lysis buffer (1.0 ml 1.0 M HEPES buffer, pH 7.5, 0.5 ml 1M KOH, 10 μl 0.5M EDTA, protease inhibitor cocktail, water to 5 ml; the final pH will vary depending on the individual enzyme being tested) and one volume of 0.1 mm acid washed glass beads. The mixture is repeatedly alternately vortexed and held on ice for 15 seconds, eight times. After centrifugation for 5 min at 4,000 rpm, the supernatant lysate is removed and respun for 20 min at 10,000 rpm. Alternatively, C. glutamicum strains transformed with MB4124 expression clones containing the recombinant gene of interest are grown aerobically overnight in BHI broth supplemented with the proper antibiotic(s). Five mL of fresh overnight culture is used to inoculate 200 mL BHI containing 0.25 mM IPTG and the appropriate antibiotic. The cultures are grown aerobically at 30° C. for 5-7 hours at which time the cells are collected and harvested by centrifugation at 4° C. The pellet is resuspended in 15 mL ice cold 39 mM KH2PO4, 61 mM K2HPO4, 0.5 M KCl and lysed using a BioSpec BeadBeater and following the manufacturer's instructions. The lysate is centrifuged at 16,000 RPM at 4° C. for 30 minutes and the supernatant retained on ice as the extract.
Protein Assays. Protein concentrations in lysates are determined according to the methods of Bradford et al. (Anal. Biochem. 72:248-254 [1976]) or by the method of Smith et al. (Anal. Biochem. 150(1):76-85 [1985]) and lysates are assayed according to the methods below.
Enzyme Assays. Enzyme assays are performed on the cell lysates prepared above. The activity for each recombinant enzyme is compared to a lysate from a vector only control culture which is generated in a fashion identical to the recombinant enzyme lysate. […]

[2] = tested on: 5-hydroxy-2-oxopentanoate; assay: In vitro substrate conversion assay, step A5; format: biochemical; settings: BDO biosynthetic pathway step A5
Experimental: In Vitro Substrate Conversion. Most of the enzyme assays described above are based on recording changes in absorbance at a given wavelength. In addition to such spectrophotometric readouts, these assays can also be analyzed by more direct methods using an endpoint assay where the reaction is terminated after a given period of time and the mixture is analyzed via HPLC or LC-MS methods.
(§3) The aldehyde dehydrogenase linked reaction was used for step A5.

[3] = tested on: 5-hydroxy-2-oxopentanoate; assay: Bioconversion (feeding) assay, step A5; format: cell-based; settings: BDO biosynthetic pathway step A5
Experimental: Bioconversion assays. The activity of a candidate enzyme towards a given substrate can also be evaluated in vivo using a simple feeding assay. A strain expressing the candidate enzyme is grown in the presence of the substrate for which activity is desired. Samples of the culture are removed periodically and the cells are removed via centrifugation. The culture supernatant is then analyzed (e.g., by LC-MS) to determine how much of the substrate has been removed and how much of a given product is present.
as §3

Row | Molecule | Enzyme Assay (5-hydroxy-L-norvaline) | Enzyme Assay [1] | In Vitro Substrate Conversion Assay [2] | Bioconversion Assay [3]
1 | BcaTLp: Enzyme candidate for BDO biosynthetic pathway step A4, SEQ ID NO. 34 (protein, listed as Lactobacillus plantarum) MADVQLDWNNLGFEYRNLPYRYRAYWKDGAWYKKELTGDATLHISEGSTALHYGQQDFEGLKAYRTKDGSVQLFRPDRNAARMQTSCERLLMPQVPTDMFVDAVKQVVKANQDYVPPYGTGATLYLRPLMIGVGGNIGVHPAQEYIFTVFAMPVGSYFKGGMTPTNFTTSEYDRAAHKGTGAYKVGGNYAASLFPGQEAHANGFSDCVYLDPVEHRKIEEVGSANFFGITKDGTFVTPKSPSILPAVTKYSLLYLAEHKFGMKTEQGDVYIDDLDRFAEAGACGTAAVISPIGGLEHQGKLHVFYSETEVGPVTKKLYDELTGIQFGDREAPEGWVQKVELD | − |  |  | 
2 | PdcBc: Enzyme candidate for BDO biosynthetic pathway step A5, SEQ ID NO. 42 (protein, listed as Bacillus cereus) MKKQYTVSTYLLDRLHELGIEHIFGVPGDYNLAFLDDVVAHENLKWIGNCNELNAAYAADGYARIKGIAALITTFGVGELSAINGIAGSYAENVPVIKITGTPPTKVMENGAIVHHTLGDGKFDHFSNMYREITVAQTNVTPEHAAEEIDRVLRACWNEKRPVHINLPIDVYNKPINKPTEPIINKPILSNKEALNKMLLHAISKINSAKKPVILADFEVDRFHAKENLHQFVEKTGFPIATLSMGKGIFPEKHPQFIGIYTGDVSSPYLRKRIDESDCIISIGVKLTDTITGGFTQGFTKEQVIEIHPYTVKIIDKKYGPVVMQDVLQHLSDSIEHRNKDTLDVKPFILESSPFTEEFIPKAQMVTQKRFWQQMYHFLQENDVLIVEQGTPFFGSSAIPLPNNTAYVGQPLWGSIGYTLPALLGTQLANLSRRNILIIGDGSFQVTAQELSTILRQNLKPIIFLINNNGYTVERAIHGQNQLYNDIQMWDYNKLSMVFGAEEKSLTFKVENEAELAAVLTNITFNKNQLIFIEVIMSQSDQPELLAKLGKRSGQQNS |  | − | − | −
3 | IlvECg: Enzyme candidate for BDO biosynthetic pathway step A4, SEQ ID NO. 28 (protein, listed as Corynebacterium glutamicum) MYLSGSRCTLKSMTSLEFTVTRTENPTSPDRLKEILAAPKFGKFFTDHMVTIDWNESEGWHNAQLVPYAPIPMDPATTVFHYGQAIFEGIKAYRHSDETIKTFRPDENAERMQRSAARMAMPQLPTEDFIKALELLVDADQDWVPEYGGEASLYLRPFMISTEIGLGVSPADAYKFLVIASPVGAYFTGGIKPVSVWLSEDYVRAAPGGTGDAKFAGNYAASLLAQSQAAEKGCDQVVWLDAIEHKYIEEMGGMNLGFIYRNGDQVKLVTPELSGSLLPGITRKSLLQVARDLGYEVEERKITTTEWEEDAKSGAMTEAFACGTAAVITPVGTVKSAHGTFEVNNNEVGEITMKLRETLTGIQQGNVEDQNGWLYPLVG | − |  |  | 
4 | BATlY1: Enzyme candidate for BDO biosynthetic pathway step A4, SEQ ID NO. 31 (protein, listed as Yarrowia lipolytica) MLRNNLRSLSRAFSTSSMRLGAGMDASKLQITKTKSPKEKQAPKDLIFGHTFTDHMLTVEWTAKDGWAAPQITPYGPLELDPSAVVLHYAFECFEGLKAYKDESGNVRLFRVDKNMHRMNTSAERICLPEFDGAEAAKLIGQLAKLDSAWIPEGRGYSMYLRPSLIGTTAALGVGTPDKALFYVIASPVGPYYPTGFKAVKLEATDYAVRAWPGGVGNKKLGANYAPCIKPQQQAASRGYQQNLWLFGDEGNITEVGTMNAFFVFERNGKKELVTAPLDGTILEGVTRDSILELARERLPSADWIVSERYCTIKEVAEAAEKGELVEAFGAGTAAVVSPIKEIGWGEKTINIPLQPGKEAGKLTETVNEWIGDIQYGKDEYKGWSKVV | − |  |  | 
5 | BioACg: Enzyme candidate for BDO biosynthetic pathway step A4, SEQ ID NO. 29 (protein, listed as Corynebacterium glutamicum) MENPSLRELDHRNIWHPYAAPGVRNRLVTKTDGVFLTLEDGSTVIDAMSSWWSAIHGHGHPRLKAAAQKQIDTMSHVMFGGLTHEPAIKLTHKLLNLTGNSFDHVFYSDSGSVSVEVAIKMALQASKGQGHPERTKLLTWRSGYHGDTFTAMSVCDPENGMHSLWKGTLPEQIFAPAPPVRGSSPQAISEYLRSMELLIDETVSAIIIEPIVQGAGGMRFHDVALIEGVATLCKKHDRFLIVDEIATGFGRTGELFATLSNGLQPDIMCVGKALTGGFMSFAATLCTDKVAQLISTPNGGGALMHGPTFMANPLACAVSHASLEIIETGMWQKQVKRIEAELIAGLSPLQHLPGVADVRVLGAIGVIEMEQNVNVEEATQAALDHGVWIRPFGRLLYVMPPYITTSEQCAQICTALHAAVKGK | − |  |  | 
6 | PdcZm: Enzyme candidate for BDO biosynthetic pathway step A5, SEQ ID NO. 38 (protein, listed as Zymomonas mobilis) MSYTVGTYLAERLVQIGLKHHFAVAGDYNLVLLDNLLLNKNMEQVYCCNELNCGFSAEGYARAKGAAAAVVTYSVGALSAFDAIGGAYAENLPVILISGAPNNNDHAAGHVLHHALGKTDYHYQLEMAKNITAAAEAIYTPEEAPAKIDHVIKTALREKKPVYLEIACNIASMPCAAPGPASALFNDEASDEASLNAAVEETLKFIANRDKVAVLVGSKLRAAGAEEAAVKFADALGGAVATMAAAKSFFPEENPHYIGTSWGEVSYPGVEKTMKEADAVIALAPVFNDYSTTGWTDIPDPKKLVLAEPRSVVVNGIRFPSVHLKDYLTRLAQKVSKKTGALDFFKSLNAGELKKAAPADPSAPLVNAEIARQVEALLTPNTTVIAETGDSWFNAQRMKLPNGARVEYEMQWGHIGWSVPAAFGYAVGAPERRNILMVGDGSFQLTAQEVAQMVRLKLPVIIFLINNYGYTIEVMIHDGPYNNIKNWDYAGLMEVFNGNGGYDSGAGKGLKAKTGGELAEAIKVALANTDGPTLIECFIGREDCTEELVKWGKRVAAANSRKPVNKLL |  | − | − | −
7 | PdcSs: Enzyme candidate for BDO biosynthetic pathway step A5, SEQ ID NO. 41 (protein, listed as Staphylococcus saprophyticus) MKKRVGQYLMDCISDVGVDKVFGVPGDFNLTFLDDIISRDDMEWIGNTNELNASYAADGYARMKGIAAMVTTFGVGELSAVNGIAGSYAERVPVIQITGAPTRAVESAGKYVHHSLGEGNFDDYRNMYASITTAQAYITPENAQSEIPRVINAALYEKRPVHIHLPIDVANSEIDVATPFEIEQRPQTDVTKYMTMVKDKLQSADKPVIITGHEINSFKLHEKLEQFVKQSQIPVVQLSLGKGAFNETSPYYMGIYDASLAEEDIRNYVDQSDAILNIGAKLTDSATAGYSYQFDIDDVVMINHHHFKMNETKDTEVSLVDLLDGLNAINYVNNAEFPKFKQPKAHDYDLTDEPLTQETYFKMMQDFIREEDVILAEQGTSFFGAYDLALKHNNKFIGQPLWGSIGYTLPATLGTQMADTSRRNLLLIGDGSLQLTVQEISTMIREKIKPIIFVINNDGYTVERKIHGENAMYNDIKMWDYKLLPTVFGGKDEVQVHDVNTSEAFQKVLLQIEAQPDTMHFIEVKMGVHDAPHKLNAIGQAFAKQNG |  | − | − | −
